# Measurements: article PMC2645956
# Molecular target: Paracoccus denitrificans soluble cytochrome c552 fragment, wild-type (unlabeled) (Paracoccus denitrificans) (UniProt P54820)
# Sequence of UniProt P54820 (P54820 78-176): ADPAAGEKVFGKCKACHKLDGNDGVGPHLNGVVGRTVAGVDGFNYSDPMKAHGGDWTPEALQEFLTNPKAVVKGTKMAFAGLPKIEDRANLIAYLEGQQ
substance,measurement,value
"Paracoccus denitrificans soluble cytochrome c1 core fragment, wild-type (domain or fragment)","Brønsted parameter ZAZB of the ionic strength dependence of k12, stopped-flow",-4
